B1: anti-CD133 scFv clone 11, HA-tagged, secreted into bacterial culture supernatant (scFv, V domains shown)
VH: EVKLVESGPELKKPGETVKISCKASGYTFTDYSMHWVNQAPGKGLKWMGWINTETGEPSYADDFKGRFAFSLETSASTAYLQINNLKNEDTATYFCATDYGDYFDYWGQGTTLTVSS
VL: DIVLSQSPAIMSASPGEKVTISCSASSSVSYMYWYQQKPGSSPKPWIYRTSNLASGVPARFSGSGSGTSYSLTISSMEAEDAATYYCQQYHSYPPTFGAGTKLELK
B2: anti-CD133 scFv (clone 11) without HA epitope tag, FITC-labelled (scFv, V domains shown)
VH: B1 VH
VL: B1 VL

Columns and labels:
[1] = target: T1, human CD133 protein (coated on ELISA wells) (human) (UniProt O43490); assay: ELISA
T1 sequence: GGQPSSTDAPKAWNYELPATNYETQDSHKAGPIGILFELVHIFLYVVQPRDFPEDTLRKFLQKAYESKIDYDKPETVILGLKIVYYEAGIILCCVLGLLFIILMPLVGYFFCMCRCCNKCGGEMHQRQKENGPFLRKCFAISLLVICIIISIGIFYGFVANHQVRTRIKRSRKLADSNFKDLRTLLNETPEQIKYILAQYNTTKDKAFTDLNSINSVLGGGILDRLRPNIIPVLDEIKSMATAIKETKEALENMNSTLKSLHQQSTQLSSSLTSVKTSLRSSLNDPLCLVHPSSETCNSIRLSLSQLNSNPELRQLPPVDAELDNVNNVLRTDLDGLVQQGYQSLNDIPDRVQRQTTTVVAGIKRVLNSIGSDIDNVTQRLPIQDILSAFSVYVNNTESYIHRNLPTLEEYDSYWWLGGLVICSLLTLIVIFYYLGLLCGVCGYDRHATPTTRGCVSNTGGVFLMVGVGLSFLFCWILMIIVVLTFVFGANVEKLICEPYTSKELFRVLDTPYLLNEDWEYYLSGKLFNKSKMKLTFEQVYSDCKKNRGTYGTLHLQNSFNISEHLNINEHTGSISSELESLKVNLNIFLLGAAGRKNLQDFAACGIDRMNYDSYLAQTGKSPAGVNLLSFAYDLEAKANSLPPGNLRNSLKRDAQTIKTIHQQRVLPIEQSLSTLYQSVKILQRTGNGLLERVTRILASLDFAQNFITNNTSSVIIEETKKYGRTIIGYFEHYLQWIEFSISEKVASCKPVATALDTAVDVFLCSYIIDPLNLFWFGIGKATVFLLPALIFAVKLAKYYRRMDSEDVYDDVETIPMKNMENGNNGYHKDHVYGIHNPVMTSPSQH

[2] = target: human CD133 on Caco-2 cells (Homo sapiens, endogenous in Caco-2, UniProt O43490); assay: flow cytometry on cells

| absorbance at 450 nm [1] | binding result [2] | Binder |
| --- | --- | --- |
| 0.9 AU | – | B1 |
| – | binds | B2 |
